Assay results from PMC10397247.

Legend:
[1] = biological target: T1, 4H3595-AA; assay: two-hybrid library CCmax;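 note: natural log of median RNA to DNA barcode read ratio; higher means stronger binding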
T1 chain: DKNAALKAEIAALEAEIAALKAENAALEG

[2] = biological target: T2, 4H380-AA; assay: two-hybrid library CCmax; details: mean of both orientations;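 note: natural log of median RNA to DNA barcode read ratio; higher means stronger binding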
T2 chain: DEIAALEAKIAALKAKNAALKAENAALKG

[3] = biological target: T3, 4H3939-AA; assay: two-hybrid library CCmax; details: mean of both orientations;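 note: natural log of median RNA to DNA barcode read ratio; higher means stronger binding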
T3 chain: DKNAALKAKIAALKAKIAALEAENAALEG

[4] = biological target: T4, 4H3782-AA; assay: two-hybrid library CCmax; details: mean of both orientations;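 note: natural log of median RNA to DNA barcode read ratio; higher means stronger binding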
T4 chain: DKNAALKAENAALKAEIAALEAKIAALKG

[5] = biological target: T5, 4H446-AA; assay: two-hybrid library CCmax; details: mean of both orientations;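 note: natural log of median RNA to DNA barcode read ratio; higher means stronger binding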
T5 chain: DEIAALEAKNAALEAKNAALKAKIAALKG

[6] = biological target: T6, 4H3629-AA; assay: two-hybrid library CCmax; details: mean of both orientations;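 note: natural log of median RNA to DNA barcode read ratio; higher means stronger binding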
T6 chain: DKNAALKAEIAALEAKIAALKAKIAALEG

[7] = biological target: T7, 4H63-AA; assay: two-hybrid library CCmax; details: mean of both orientations
T7 chain: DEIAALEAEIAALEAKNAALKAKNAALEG

[8] = biological target: T8, 4H464-AA; assay: two-hybrid library CCmax; details: mean of both orientations
T8 chain: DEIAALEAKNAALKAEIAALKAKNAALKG

[9] = biological target: T9, 4H3969-AA; assay: two-hybrid library CCmax; details: mean of both orientations
T9 chain: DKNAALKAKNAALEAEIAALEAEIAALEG

[10] = biological target: T10, 4H483-AA; assay: two-hybrid library CCmax; details: mean of both orientations
T10 chain: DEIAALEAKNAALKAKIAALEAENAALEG

[11] = biological target: T11, 4H3753-AA; assay: two-hybrid library CCmax; details: mean of both orientations
T11 chain: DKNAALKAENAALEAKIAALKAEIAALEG

[12] = biological target: T12, 4H850-AA; assay: two-hybrid library CCmax; details: mean of both orientations
T12 chain: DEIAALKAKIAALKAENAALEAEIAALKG

[13] = biological target: T13, 4H909-AA; assay: two-hybrid library CCmax; details: mean of both orientations
T13 chain: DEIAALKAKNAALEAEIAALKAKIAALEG

[14] = biological target: T14, 4H930-AA; assay: two-hybrid library CCmax; details: mean of both orientations
T14 chain: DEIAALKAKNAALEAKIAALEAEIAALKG

[15] = biological target: T15, 4H570-AA; assay: two-hybrid library CCmax; details: mean of both orientations
T15 chain: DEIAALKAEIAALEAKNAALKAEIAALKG

[16] = biological target: T16, 4H3590-AA; assay: two-hybrid library CCmax; details: mean of both orientations
T16 chain: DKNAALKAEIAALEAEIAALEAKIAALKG

[17] = biological target: T17, 4H458-AA; assay: two-hybrid library CCmax; details: mean of both orientations
T17 chain: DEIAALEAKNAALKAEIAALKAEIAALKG

[18] = biological target: T18, 4H485-AA; assay: two-hybrid library CCmax; details: mean of both orientations
T18 chain: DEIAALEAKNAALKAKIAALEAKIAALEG

[19] = biological target: T19, 4H3016-AA; assay: two-hybrid library CCmax; details: mean of both orientations
T19 chain: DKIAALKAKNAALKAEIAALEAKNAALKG

[20] = biological target: T20, 4H3009-AA; assay: two-hybrid library CCmax; details: mean of both orientations
T20 chain: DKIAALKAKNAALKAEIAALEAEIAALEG

[21] = biological target: T21, 4H3120-AA; assay: two-hybrid library CCmax; details: mean of both orientations
T21 chain: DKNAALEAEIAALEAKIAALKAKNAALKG

[22] = biological target: T22, 4H2698-AA; assay: two-hybrid library CCmax
T22 chain: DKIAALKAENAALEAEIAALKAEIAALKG

[23] = biological target: T23, 4H2725-AA; assay: two-hybrid library CCmax; details: mean of both orientations
T23 chain: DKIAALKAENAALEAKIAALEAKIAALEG

[24] = biological target: T24, 4H745-AA; assay: two-hybrid library CCmax; details: mean of both orientations
T24 chain: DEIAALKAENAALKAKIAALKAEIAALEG

[25] = biological target: T25, 4H3410-AA; assay: two-hybrid library CCmax; details: mean of both orientations
T25 chain: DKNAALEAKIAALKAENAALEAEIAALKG

[26] = biological target: T26, 4H797-AA; assay: two-hybrid library CCmax; details: mean of both orientations
T26 chain: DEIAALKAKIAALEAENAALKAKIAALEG

[27] = biological target: T27, 4H710-AA; assay: two-hybrid library CCmax; details: mean of both orientations
T27 chain: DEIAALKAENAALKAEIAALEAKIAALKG

[28] = biological target: T28, 4H2865-AA; assay: two-hybrid library CCmax; details: mean of both orientations
T28 chain: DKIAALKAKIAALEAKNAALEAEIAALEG

[29] = biological target: T29, 4H94-AA; assay: two-hybrid library CCmax; details: mean of both orientations
T29 chain: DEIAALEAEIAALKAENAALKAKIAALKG

[30] = biological target: T30, 4H3395-AA; assay: two-hybrid library CCmax; details: mean of both orientations
T30 chain: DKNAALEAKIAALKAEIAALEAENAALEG

[31] = biological target: T31, 4H3165-AA; assay: two-hybrid library CCmax; details: mean of both orientations
T31 chain: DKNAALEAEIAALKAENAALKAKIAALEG

[32] = biological target: T32, 4H3865-AA; assay: two-hybrid library CCmax; details: mean of both orientations
T32 chain: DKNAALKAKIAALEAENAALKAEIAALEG

[33] = biological target: T33, 4H629-AA; assay: two-hybrid library CCmax; details: mean of both orientations
T33 chain: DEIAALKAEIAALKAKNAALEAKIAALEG

[34] = biological target: T34, 4H3381-AA; assay: two-hybrid library CCmax; details: mean of both orientations
T34 chain: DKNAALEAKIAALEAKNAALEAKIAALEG

[35] = biological target: T35, 4H891-AA; assay: two-hybrid library CCmax; details: mean of both orientations
T35 chain: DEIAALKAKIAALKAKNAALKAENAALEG

[36] = biological target: T36, 4H3697-AA; assay: two-hybrid library CCmax; details: mean of both orientations
T36 chain: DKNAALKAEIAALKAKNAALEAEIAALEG

[37] = biological target: T37, 4H3130-AA; assay: two-hybrid library CCmax; details: mean of both orientations
T37 chain: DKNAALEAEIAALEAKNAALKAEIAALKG

[38] = biological target: T38, 4H310-AA; assay: two-hybrid library CCmax; details: mean of both orientations
T38 chain: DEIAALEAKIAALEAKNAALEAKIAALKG

[39] = biological target: T39, 4H536-AA; assay: two-hybrid library CCmax; details: mean of both orientations
T39 chain: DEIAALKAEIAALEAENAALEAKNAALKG

[40] = biological target: T40, 4H481-AA; assay: two-hybrid library CCmax
T40 chain: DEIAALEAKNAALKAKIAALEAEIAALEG

[41] = biological target: T41, 4H55-AA; assay: two-hybrid library CCmax
T41 chain: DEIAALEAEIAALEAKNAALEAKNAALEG

[42] = biological target: T42, 4H662-AA; assay: two-hybrid library CCmax; details: mean of both orientations
T42 chain: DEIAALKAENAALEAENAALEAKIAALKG

[43] = biological target: T43, APC7099-AA; assay: two-hybrid library CCmax
T43 chain: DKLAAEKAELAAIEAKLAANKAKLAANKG

[44] = biological target: T44, APC9319-AA; assay: two-hybrid library CCmax; details: mean of both orientations
T44 chain: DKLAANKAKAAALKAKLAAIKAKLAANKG

[45] = biological target: T45, APC9096-AA; assay: two-hybrid library CCmax; details: mean of both orientations
T45 chain: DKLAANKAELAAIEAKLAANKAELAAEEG

[46] = biological target: T46, APC8191-AA; assay: two-hybrid library CCmax; details: mean of both orientations
T46 chain: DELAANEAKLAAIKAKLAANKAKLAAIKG

[47] = biological target: T47, APC8910-AA; assay: two-hybrid library CCmax; details: mean of both orientations
T47 chain: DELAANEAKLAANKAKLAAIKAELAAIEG

[48] = biological target: T48, 4H797-bN; assay: two-hybrid library CCNG1
T48 chain: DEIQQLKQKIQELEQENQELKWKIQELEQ

[49] = biological target: T49, 4H908-bN; assay: two-hybrid library CCNG1
T49 chain: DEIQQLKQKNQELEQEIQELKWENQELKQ

[50] = biological target: T50, 4H918-bN; assay: two-hybrid library CCNG1
T50 chain: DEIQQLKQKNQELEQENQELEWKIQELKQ

[51] = biological target: T51, 4H967-bN; assay: two-hybrid library CCNG1
T51 chain: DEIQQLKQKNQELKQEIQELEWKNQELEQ

[52] = biological target: T52, 4H687-bN; assay: two-hybrid library CCNG1
T52 chain: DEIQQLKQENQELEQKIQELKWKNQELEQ

[53] = biological target: T53, 4H717-bN; assay: two-hybrid library CCNG1
T53 chain: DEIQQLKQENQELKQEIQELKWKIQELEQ

[54] = biological target: T54, 4H568-bN; assay: two-hybrid library CCNG1
T54 chain: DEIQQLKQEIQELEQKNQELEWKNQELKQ

[55] = biological target: T55, 4H72-bN; assay: two-hybrid library CCNG1
T55 chain: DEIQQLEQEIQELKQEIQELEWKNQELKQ

[56] = biological target: T56, 4H883-bN; assay: two-hybrid library CCNG1
T56 chain: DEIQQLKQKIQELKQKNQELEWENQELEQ

[57] = biological target: T57, 4H607-bN; assay: two-hybrid library CCNG1
T57 chain: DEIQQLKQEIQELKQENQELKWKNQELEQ

[58] = biological target: T58, 4H754-bN; assay: two-hybrid library CCNG1
T58 chain: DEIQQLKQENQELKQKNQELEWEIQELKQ

[59] = biological target: T59, 4H953-bN; assay: two-hybrid library CCNG1
T59 chain: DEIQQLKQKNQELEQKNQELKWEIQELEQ

## DKNAALKAEIAALEAEIAALKAENAALEG [4H3595-AA]
[1]
  interaction score: -0.866
[2]
  interaction score: 0.0185
[3]
  interaction score: -0.576
[4]
  interaction score: -1.1
[5]
  interaction score: -1.59
[6]
  interaction score: 0.754
[7]
  interaction score: -0.914
[8]
  interaction score: 1.2
[9]
  interaction score: -1.4
[10]
  interaction score: -1.8

## DKIAALKAENAALEAEIAALKAEIAALKG [4H2698-AA]
[11]
  interaction score: -1
[12]
  interaction score: -0.992
[13]
  interaction score: -0.0319
[14]
  interaction score: -0.113
[15]
  interaction score: 0.35
[16]
  interaction score: -0.95
[17]
  interaction score: 2.26
[18]
  interaction score: 1.49
[19]
  interaction score: 0.539
[20]
  interaction score: 2.02
[21]
  interaction score: -1.3
[22]
  interaction score: 2.27
[23]
  interaction score: -1.02
[24]
  interaction score: 2.2
[25]
  interaction score: -1.56
[26]
  interaction score: -1.25
[27]
  interaction score: 1.79
[28]
  interaction score: 0.889
[29]
  interaction score: -0.915
[30]
  interaction score: -1.65
[31]
  interaction score: -1.39
[32]
  interaction score: -1.07
[33]
  interaction score: -1.54
[34]
  interaction score: -0.904
[35]
  interaction score: -1.59
[36]
  interaction score: -1.12
[37]
  interaction score: 1.19
[38]
  interaction score: -0.185
[39]
  interaction score: -1.49

## DEIAALEAKNAALKAKIAALEAEIAALEG [4H481-AA]
[40]
  interaction score: 0.282
[41]
  interaction score: -1.31
[42]
  interaction score: 1.83

## DKLAAEKAELAAIEAKLAANKAKLAANKG [APC7099-AA]
[43]
  interaction score: -1.86
[44]
  interaction score: -2.06
[45]
  interaction score: -1.55
[46]
  interaction score: -1.62
[47]
  interaction score: -2.07

## DEIQQLKQEIQELEQKNQELEWKNQELKQ [4H568-bN]
[48]
  interaction score: 0
[49]
  interaction score: 1.08
[50]
  interaction score: -0.124
[51]
  interaction score: -0.452
[52]
  interaction score: 0.312
[53]
  interaction score: -0.157
[54]
  interaction score: 0.761
[55]
  interaction score: -0.806
[56]
  interaction score: 1.1
[57]
  interaction score: -0.164
[58]
  interaction score: 0.0731
[59]
  interaction score: -1.93

## DEIQQLKQENQELKQEIQELKWKIQELEQ [4H717-bN]
[48]
  interaction score: -1.95
[49]
  interaction score: -0.377
[50]
  interaction score: -1.09
[51]
  interaction score: -0.445
[53]
  interaction score: 1.4
[55]
  interaction score: -1.73
[56]
  interaction score: -0.0445
[58]
  interaction score: -0.997
[59]
  interaction score: -1.57

## DEIQQLKQENQELEQKIQELKWKNQELEQ [4H687-bN]
[48]
  interaction score: 0.169
[49]
  interaction score: -0.555
[50]
  interaction score: -0.686
[51]
  interaction score: 0.425
[52]
  interaction score: -0.549
[53]
  interaction score: 0.114
[55]
  interaction score: -1.56
[56]
  interaction score: 0.227
[58]
  interaction score: 0.422
[59]
  interaction score: -1.1
